The text below walks through data of US20190276542A1 (QILU PUGET SOUND BIOTHERAPEUTICS, published 2019).

Where two headings read alike, the source gives them in different places.

The target in experiment [1] is T1, extracellular domain of a recombinant cynomolgus (rcyno) PD1 (cynomolgus monkey, UniProt B0LAJ3 25-170).
T1 construct: also called recombinant cynomolgus PD1
Description: SPR (Biacore 3000), antibody captured by anti-human IgG, PD1 as analyte. On the procedure: (§1) Biosensor analysis was conducted at 25° C. in an HBS-EP buffer (10 mM HEPES, 150 mM NaCl, 3 mM EDTA, 0.005% polysorbate 20, 0.1% bovine serum albumin, pH 7.4) using a Biacore 3000 optical biosensor equipped with a CM5 sensor chip according to the manufacturer's general protocol. The auto sampler was maintained at ambient temperature. […] About 8000 resonance units (RU) of this antibody was immobilized on these chips. Flow cell 4 was used to analyze captured anti-hPD1 antibodies (about 100 to 200 RU were captured on flow cell 4), while flow cell 3 was used as the reference flow cell. Both analytes, recombinant human PD1 and recombinant cynomolgus PD1, were prepared in five concentrations for each antibody tested. The analyte concentrations tested ranged from 1.2 to 300 nM. All analyte dilutions were prepared in HPS-EP buffer. Each of the five analyte sample concentrations were run in duplicate and in a mixed order, as a means of assessing the reproducibility of binding and mitigating systematic bias to the order of injection. Multiple blank (running buffer) injections also were run and used to assess and subtract system artifacts. The association phase and dissociation phase for all analyte concentrations were monitored for 300 seconds and 1500 seconds, respectively, at a flow rate of 50 μL/min. Between antibody samples the surface of the flow cell was regenerated with 10 mM glycine, pH 1.5 for 30 seconds at a flow rate of 50 μL/min.
(§2) The data was aligned, double referenced, and fit using SCRUBBER 2™ software (BioLogic Software, Pty, Australia), which is a Surface Plasmon Resonance (SPR) data processing and non-linear least squares regression fitting program.
A general note: Surface plasmon resonance follows binding to a sensor surface in real time, without labels.

The target of experiment [2] is T2, recombinant human (rhu) PD1 (extracellular domain only) (human, UniProt Q15116 25-170).
T2 construct: extracellular domain; also called recombinant human PD1
The description is as above. The protocol:
as §1, §2

In experiment [3] the target is T3, human PD1 expressed on a cell surface (human, UniProt Q15116 25-288). Kind of experiment: cell-based or functional assay.
Experiment [4] addresses T3, human PD1 expressed on a cell surface. Kind of experiment: cell-based or functional assay. This is another data set of the same source.
Experiment [5] has the same target. Kind of experiment: flow cytometry on OKT3-activated human T cells, CD4- cells. On the procedure: (§3) The following experiment tested whether the selected anti-hPD1 antibodies can bind to native PD1 expressed on the surface of activated T cells. Human PBMCs were pre-activated with OKT3 (an anti-CD3 antibody) at a concentration of 1 μg/ml. After three days, the PBMCs, which were mostly activated T cells at this time, were distributed into a 96 well microtiter plate using 0.1×10⁶ cells/well. […] The antibody bound to CD4⁺ T cells and CD4⁻ T cells (which were predominately CD8⁺ T cells) was detected using anti-hlgG-FITC and an anti-CD4 antibody labeled with allophycocyanin (anti-CD4-APC).
(§4) The samples were analyzed by flow cytometry (FACScalibur, BD), and binding was reported as an MFI. EC₅₀'s for binding were calculated using GraphPad Prism software.
A general note: In flow cytometry, cells or beads pass a laser one at a time.

Experiment [6] has the same target. Kind of experiment: cell-based or functional assay. The source holds these as a separate data set.
The target of experiment [7] is T4, soluble, biotinylated PD1 protein containing only the extracellular region (human, UniProt Q15116 25-170, biotinylated in vivo (site not stated)).
T4 construct: extracellular domain; also called biotinylated hPD1
Description: …; inhibition of GST-hPDL1 binding to biotinylated hPD1. The protocol: Finally, 10 μL of streptavidin donor beads (which can bind the biotinylated hPD1) were added to bring the final concentration of donor beads to 16 μg/mL, and the plates were incubated in the dark at RT for one hour. […] An antibody that inhibits this interaction or binding will decrease the signal, since the inhibiting antibody prevents physical proximity of the donor and acceptor beads.
Plates were read in an EnVision 2103 Multilabel Reader (PerkinElmer) using illumination at a wavelength of 680 nm and reading emission at a wavelength of about […]. The results were plotted and IC₅₀ values were calculated using GraphPad Prism software.

Experiment [8] has as its target T3, human PD1 expressed on a cell surface. Description: cell-based or functional assay. This is another data set of the same source.
Experiment [9] has the same target. Kind of experiment: flow cytometry on OKT3-activated human T cells, CD4+ cells. The protocol:
as §3, §4

For experiment [10], the target named is human CTLA4 expressed on Jurkat T cells (human, UniProt P16410 36-223). Kind of experiment: cell-based or functional assay.
Sequence of human CTLA4 expressed on Jurkat T cells (P16410 36-223): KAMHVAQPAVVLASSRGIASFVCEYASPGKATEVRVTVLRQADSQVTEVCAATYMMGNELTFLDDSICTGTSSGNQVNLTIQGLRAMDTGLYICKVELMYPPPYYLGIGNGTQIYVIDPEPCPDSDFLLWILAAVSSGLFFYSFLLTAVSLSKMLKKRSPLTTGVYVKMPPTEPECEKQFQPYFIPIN

T1 sequence (B0LAJ3 entry or part of it limits assumed): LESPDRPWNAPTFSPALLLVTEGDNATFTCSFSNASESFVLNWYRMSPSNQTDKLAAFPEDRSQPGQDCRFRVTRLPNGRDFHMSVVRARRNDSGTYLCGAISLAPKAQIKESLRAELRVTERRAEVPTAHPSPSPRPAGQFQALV
T3 sequence (Q15116 25-288): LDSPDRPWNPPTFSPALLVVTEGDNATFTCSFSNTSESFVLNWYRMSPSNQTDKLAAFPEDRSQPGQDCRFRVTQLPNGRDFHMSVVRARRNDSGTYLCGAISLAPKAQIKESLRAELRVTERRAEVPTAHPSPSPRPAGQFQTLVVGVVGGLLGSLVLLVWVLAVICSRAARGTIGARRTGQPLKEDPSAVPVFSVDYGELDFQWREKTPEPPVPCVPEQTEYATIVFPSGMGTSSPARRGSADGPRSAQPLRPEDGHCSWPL
T2 sequence (Q15116 25-170): as the sequence (B0LAJ3 entry or part of it limits assumed) above, with E2D, A10P, L19V, A35T, R75Q, A144T counted along it
T4 sequence (Q15116 25-170): as the sequence (B0LAJ3 entry or part of it limits assumed) above, with E2D, A10P, L19V, A35T, R75Q, A144T counted along it

B1: anti-hPD1 antibody #1 (antibody, V domains shown)
VH: QVQLVQSGAEVKKPGASVKVSCKASGYTFTNYWIHWVRQAPGQGLEWMGEIDPYDSYTNYNQKFKGRVTMTVDKSTSTVYMELSSLRSEDTAVYYCARPGFTYGGMDFWGQGTLVTVSS
VL: DIQMTQSPSSLSASVGDRVTITCKSSQSLFNSGNQKNYLAWYQQKPGKVPKLLIYGASTRDSGVPYRFSGSGSGTDFTLTISSLQPEDVATYYCQNDHYYPYTFGGGTKVEIKR
notes: also called Anti-hPD1 #1; Anti-PD1 #1
As usually defined, the Kd is the concentration at which binding is half-saturated. The term koff denotes a measure of how fast the partners let go of each other. Usually kon stands for a measure of how fast the partners come together. As a reminder, the EC50 is the concentration that produces a half-maximal response. Low values mean an effect from little substance, high ones a need for much substance. What is called IC50 is the concentration at which inhibition is half-maximal. Take B1: in experiment [1], the Kd came out at 5.06 nM, the koff turned out to be 0.000597 s⁻¹ and the kon worked out at 118000 M⁻¹ s⁻¹. In [2], the Kd was determined as 2.18 nM, the off-rate constant (koff) was determined as 0.000133 s⁻¹ and the kon came to 60900 M⁻¹ s⁻¹. Further, the “IC50, luciferase reporter assay (Jurkat cells with hPD1 plus CHO cells with hPDL1)” value in experiment [3] was determined as 2.5 nM. In [4], the “IC50, luciferase reporter assay (Jurkat cells with hPD1 plus CHO cells with hPDL1)” value was 2.49 nM. The molecule further returned an EC50 in [5] of 1.37 nM. Moreover, the “IC50, luciferase (RLU), PD1 dual cell reporter assay (Jurkat cells with hPD1 plus CHO-K1 cells with hPDL1)” value (from here on “IC50, luciferase (RLU)”) in experiment [6] turned out to be 1.18 nM. In experiment [7], this molecule gave an IC50 of 0.197 nM. Further, in experiment [8], the “EC50 for CD4+ T cell proliferation (pM), mixed lymphocyte reaction” value (from here on “EC50 for CD4+ T cell proliferation (pM)”) stood at 135 pM; the “EC50 for CD8+ T cell proliferation (pM), mixed lymphocyte reaction” value (from here on “EC50 for CD8+ T cell proliferation (pM)”) came out at 323 pM; the “EC50 for IFN gamma production (pM), mixed lymphocyte reaction” value (from here on “EC50 for IFN gamma production (pM)”) was 890 pM. In [9], this molecule had an EC50 of 0.918 nM.

B2: altered anti-hPD1 antibody #1 (antibody, human IgG4 S228P, kappa, V domains shown)
VH: QVQLVQSGAEVKKPGASVKVSCKASGYTFTNYWIHWVRQAPGQDLEWMGEIDPYDSYTNYNQKFKGRVTMTVDKSTSTVYMELSSLRSEDTAVYYCARPGFTYGGMDFWGRGTLVTVSS
VL: DIQMTQSPSSLSASVGDRVTITCKSSQSLFNSGNQKNYLAWYQQKPGKDPKLLIYGASTRDSGVPYRFSGSGSGTDFTLTISSLQPEDVATYYCQNDHYYPYTFGRGTKVEIKR
As to B2, in experiment [3], the “IC50, luciferase reporter assay (Jurkat cells with hPD1 plus CHO cells with hPDL1)” value worked out at 2.67 nM; the “IC50, luciferase reporter assay (Jurkat cells with hPD1 plus CHO cells with hPDL1); tested as the mixture Altered anti-CTLA4 11F4 and altered anti-PD1 #1 made in one cell line” value was determined as 3.34 nM. Besides, in experiment [4], the “IC50, luciferase reporter assay (Jurkat cells with hPD1 plus CHO cells with hPDL1)” value is 2.65 nM; the “IC50, luciferase reporter assay (Jurkat cells with hPD1 plus CHO cells with hPDL1); tested as the mixture Altered anti-CTLA4 10D4 and altered anti-PD1 #1 made in one cell line” value is 3.8 nM.

B3: anti-hPD1 antibody #10 (antibody, human IgG4, V domains shown)
VH: QVQLVQSGAEVKKPGASVKVSCKASGYTFTSYWMHWVRQAPGQGLEWMGEIDPFDSYTNYNQKFKGRVTMTIDKSTNTVYMELSSLGSEDTAVYYCARPGYTYGGMDFWGQGTLVTVSS
VL: DIVMTQSPDSLAVSLGERATINCRSSQSLFISGNQKNYLAWYQQKPGQPPKLLIYGASTRDSGVPDRFSGSGSGTDFTLTISSLQAEDVAVYYCQNNHYYPYTFGGGTKVEIK
notes: also called Anti-hPD1 #10; Anti-PD1 #10
B3: in experiment [2], the Kd turned out to be 0.917 nM, the koff was 7.15e-05 s⁻¹ and the association rate constant (kon) was determined as 78000 M⁻¹ s⁻¹. Also, the response in experiment [5] was half-maximal at 1.6 nM (EC50). Also, the “IC50, luciferase (RLU)” value in experiment [6] turned out to be 2.69 nM. In experiment [7], this molecule returned an IC50 of 0.279 nM. In experiment [8], the “EC50 for CD4+ T cell proliferation (pM)” value is 234 pM; the “EC50 for CD8+ T cell proliferation (pM)” value stood at 839 pM; the “EC50 for IFN gamma production (pM)” value worked out at 2210 pM. In experiment [9], this molecule displayed a concentration giving a half-maximal response (EC50) of 1.07 nM.

B4: anti-hPD1 antibody #7 (antibody, human IgG4, V domains shown)
VH: QVQLVQSGAEVKKPGASVKVSCKASGYTFTNYWIHWVRQAPGQGLEWMGEIDPYDSYTNYNQKFKGRVTMTIDKSTNTVYMELSSLRSEDTAVYYCARPGLTYGGMDFWGQGTLVTVSS
VL: DIVMTQSPDSLAVSLGERATINCRSSQSLFISGNQKNYLAWYQQKPGQPPKLLIYGASTRESGVPDRFSGSGSGTDFTLTISSLQAEDVAVYYCQNNHYYPYTFGGGTKVEIK
notes: also called Anti-hPD1 #7; Anti-PD1 #7
Regarding B4, in experiment [1], the Kd is 0.4 nM, the koff came to 5.79e-05 s⁻¹ and the kon came to 145000 M⁻¹ s⁻¹. Also, in experiment [2], the Kd came out at 0.297 nM, the koff was 3.54e-05 s⁻¹ and the kon is 119000 M⁻¹ s⁻¹. The molecule further gave an EC50 in [5] of 0.569 nM. The “IC50, luciferase (RLU)” value in experiment [6] amounted to 2.39 nM. In experiment [7], this molecule returned an IC50 of 0.307 nM. Moreover, in experiment [8], the “EC50 for CD4+ T cell proliferation (pM)” value amounted to 165 pM; the “EC50 for CD8+ T cell proliferation (pM)” value is 1520 pM; the “EC50 for IFN gamma production (pM)” value is 1460 pM. Further, the midpoint of the response in experiment [9], the EC50, lay at 0.439 nM.

B5: anti-hPD1 antibody #4 (antibody, human IgG4, V domains shown)
VH: QVQLVQSGAEVKKPGASVKVSCKASGYTFTNYWMHWVRQAPGQGLEWMGEIDPFDSYTNYNQKFKGRVTMTRDTSTSTVYMELSSLTSEDTAVYYCARPGYTYGGMDFWGQGTLVTVSS
VL: DIQMTQSPSSLSASVGDRVTITCKSSQSLLNSGNQKNYLAWYQQKPGKPPKLLIYGASTRDSGVPSRFSGSGSGTDFTLTISSLQPEDVATYYCQNDHYYPYTFGGGTKVEIK
notes: also called Anti-hPD1 #4; Anti-PD1 #4
Consider B5, for which, in experiment [2], the Kd came to 4.62 nM, the koff is 0.000279 s⁻¹ and the kon was 60400 M⁻¹ s⁻¹. Moreover, the EC50 in experiment [5] came out at 0.885 nM. Besides, the “IC50, luciferase (RLU)” value in experiment [6] is 2.03 nM. This molecule came in with an IC50 in [7] of 0.314 nM. In addition, in [8], the “EC50 for CD4+ T cell proliferation (pM)” value stood at 391 pM; the “EC50 for CD8+ T cell proliferation (pM)” value was found to be 534 pM; the “EC50 for IFN gamma production (pM)” value turned out to be 1540 pM. This molecule displayed an EC50 in experiment [9] of 0.672 nM.

B6: altered anti-hCTLA4 10D4 (antibody, human IgG1, kappa, V domains shown)
VH: QVQLVESGGGVVEPGRSLRLSCTASGFTFSSYGMHWVRQAPGKRLEWVAVIWYHPSKKDYADSAKGRFTISRDNSKNTLYLQMNSLRAEDTAVYYCARAGLLGYFDYWGDGTLVTVSS
VL: EIVLTQSPGTLSLSPGERATLSCRASQSVTSYLAWYQQKPGQRPRPLIYGVSSRATGIPDRFSGSGSGTDFTLTISRLEPEDFAVYYCQQYGRYPFTFGDGTKVDIKR
Take B6: the “IC50, luciferase reporter assay (Jurkat cells with CTLA4 plus Raji cells with hCD80 and hCD86)” value in experiment [10] is 3.75 nM.
